Experimental data reported in IntAct's records for PubMed 36931259.

B1: 14-3-3 protein sigma (Homo sapiens), P31947 (parent)
chain: MERASLIQKAKLAEQAERYEDMAAFMKGAVEKGEELSCEERNLLSVAYKNVVGGQRAAWRVLSSIEQKSNEEGSEEKGPEVREYREKVETELQGVCDTVLGLLDSHLIKEAGDAESRVFYLKMKGDYYRYLAEVATGDDKKRIIDSARSAYQEAMDISKKEMPPTNPIRLGLALNFSVFHYEIANSPEEAISLAKTTFDEAMADLHTLSEDSYKDSTLIMQLLRDNLTLWTADNAGEEGGEAPQEPQS

Variants of: B1
Conditions: with pak5_human PAK5, Q9P286

Variant	effect of a mutation on the interaction
K49E;R56E;V178D	decreasing interaction strength

Variants of: B1
Conditions: with cdk16_human CDK16, Q00536

Variant	effect of a mutation on the interaction
K49E;R56E;V178D	decreasing interaction strength

Variants of: B1
Conditions: with sik1_human SIK1, P57059

Variant	effect of a mutation on the interaction
K49E;R56E;V178D	decreasing interaction strength

Variants of: B1
Conditions: with mark3_human MARK3, P27448
mark3_human MARK3, P27448, sequence (P27448 whole entry, looked up): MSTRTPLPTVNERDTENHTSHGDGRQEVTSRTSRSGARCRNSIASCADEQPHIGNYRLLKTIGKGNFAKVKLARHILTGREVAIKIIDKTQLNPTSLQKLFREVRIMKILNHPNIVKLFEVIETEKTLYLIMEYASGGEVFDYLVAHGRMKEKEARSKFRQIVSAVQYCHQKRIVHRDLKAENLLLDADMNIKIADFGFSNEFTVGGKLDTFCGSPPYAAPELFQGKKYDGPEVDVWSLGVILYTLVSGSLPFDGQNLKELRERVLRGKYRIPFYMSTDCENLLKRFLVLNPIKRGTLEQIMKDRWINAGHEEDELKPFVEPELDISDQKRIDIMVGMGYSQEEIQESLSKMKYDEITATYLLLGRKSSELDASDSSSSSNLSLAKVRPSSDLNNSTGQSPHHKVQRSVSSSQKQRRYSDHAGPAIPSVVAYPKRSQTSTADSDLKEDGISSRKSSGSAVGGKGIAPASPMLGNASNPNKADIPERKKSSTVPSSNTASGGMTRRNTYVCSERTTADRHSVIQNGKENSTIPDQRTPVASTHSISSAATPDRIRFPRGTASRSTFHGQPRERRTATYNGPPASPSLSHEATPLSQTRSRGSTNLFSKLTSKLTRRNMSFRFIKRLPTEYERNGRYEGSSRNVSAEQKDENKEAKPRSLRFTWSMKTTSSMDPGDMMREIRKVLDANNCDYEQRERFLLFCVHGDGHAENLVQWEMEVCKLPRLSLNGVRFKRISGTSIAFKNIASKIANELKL

Variant	effect of a mutation on the interaction
K49E;R56E;V178D	decreasing interaction strength

Variants of: B1
Conditions: with plk1_human PLK1, P53350

Variant	effect of a mutation on the interaction
K49E;R56E;V178D	decreasing interaction strength

Variants of: B1
Conditions: with cd28_human CD28, P10747

Variant	effect of a mutation on the interaction
K49E;R56E;V178D	decreasing interaction strength

Variants of: B1
Conditions: with srs10_human SRSF10, O75494
srs10_human SRSF10, O75494, sequence (O75494 whole entry): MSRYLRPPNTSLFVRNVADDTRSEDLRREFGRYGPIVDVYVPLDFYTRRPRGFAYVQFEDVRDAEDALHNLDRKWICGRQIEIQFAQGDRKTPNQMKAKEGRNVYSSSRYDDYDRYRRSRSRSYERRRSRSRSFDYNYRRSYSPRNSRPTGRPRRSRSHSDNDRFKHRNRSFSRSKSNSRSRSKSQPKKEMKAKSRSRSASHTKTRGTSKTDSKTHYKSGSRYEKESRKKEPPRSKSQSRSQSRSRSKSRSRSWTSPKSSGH

Variant	effect of a mutation on the interaction
K49E;R56E;V178D	decreasing interaction strength

Variants of: B1
Conditions: with pabp1_human PABPC1, P11940

Variant	effect of a mutation on the interaction
K49E;R56E;V178D	decreasing interaction strength

Variants of: B1
Conditions: with foxo3_human FOXO3, O43524
foxo3_human FOXO3, O43524, sequence (O43524 whole entry): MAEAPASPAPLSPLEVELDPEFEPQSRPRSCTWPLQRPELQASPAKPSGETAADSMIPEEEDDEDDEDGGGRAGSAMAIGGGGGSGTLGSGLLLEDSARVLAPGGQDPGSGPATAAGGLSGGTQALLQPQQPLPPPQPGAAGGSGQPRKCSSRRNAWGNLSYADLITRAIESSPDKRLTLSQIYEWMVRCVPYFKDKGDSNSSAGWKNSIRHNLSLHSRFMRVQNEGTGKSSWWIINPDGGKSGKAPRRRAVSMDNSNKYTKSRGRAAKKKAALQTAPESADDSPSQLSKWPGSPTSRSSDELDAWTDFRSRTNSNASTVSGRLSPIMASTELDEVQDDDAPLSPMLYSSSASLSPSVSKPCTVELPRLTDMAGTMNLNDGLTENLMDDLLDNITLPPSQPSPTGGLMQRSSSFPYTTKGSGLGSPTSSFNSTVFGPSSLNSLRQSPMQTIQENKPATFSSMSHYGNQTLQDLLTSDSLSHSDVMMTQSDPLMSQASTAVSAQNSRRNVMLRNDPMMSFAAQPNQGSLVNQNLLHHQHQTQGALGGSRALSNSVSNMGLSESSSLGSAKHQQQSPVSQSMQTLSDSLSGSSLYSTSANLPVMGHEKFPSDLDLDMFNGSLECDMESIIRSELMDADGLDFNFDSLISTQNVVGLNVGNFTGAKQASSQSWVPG

Variant	effect of a mutation on the interaction
K49E;R56E;V178D	decreasing interaction strength

Variants of: B1
Conditions: with hdac4_human HDAC4, P56524

Variant	effect of a mutation on the interaction
K49E;R56E;V178D	decreasing interaction strength

Variants of: B1
Conditions: with wdr62_human WDR62, O43379

Variant	effect of a mutation on the interaction
K49E;R56E;V178D	decreasing interaction strength

Variants of: B1
Conditions: with pml_human PML

Variant	effect of a mutation on the interaction
K49E;R56E;V178D	decreasing interaction strength

Variants of: B1
Conditions: with wwp2_human WWP2, O00308

Variant	effect of a mutation on the interaction
K49E;R56E;V178D	decreasing interaction strength

Variants of: B1
Conditions: with trim9_human TRIM9, Q9C026

Variant	effect of a mutation on the interaction
K49E;R56E;V178D	decreasing interaction strength

Variants of: B1
Conditions: with kctd8_human KCTD8, Q6ZWB6

Variant	effect of a mutation on the interaction
K49E;R56E;V178D	decreasing interaction strength

Variants of: B1
Conditions: with nedd4_human NEDD4, P46934
nedd4_human NEDD4, P46934, sequence (P46934 whole entry): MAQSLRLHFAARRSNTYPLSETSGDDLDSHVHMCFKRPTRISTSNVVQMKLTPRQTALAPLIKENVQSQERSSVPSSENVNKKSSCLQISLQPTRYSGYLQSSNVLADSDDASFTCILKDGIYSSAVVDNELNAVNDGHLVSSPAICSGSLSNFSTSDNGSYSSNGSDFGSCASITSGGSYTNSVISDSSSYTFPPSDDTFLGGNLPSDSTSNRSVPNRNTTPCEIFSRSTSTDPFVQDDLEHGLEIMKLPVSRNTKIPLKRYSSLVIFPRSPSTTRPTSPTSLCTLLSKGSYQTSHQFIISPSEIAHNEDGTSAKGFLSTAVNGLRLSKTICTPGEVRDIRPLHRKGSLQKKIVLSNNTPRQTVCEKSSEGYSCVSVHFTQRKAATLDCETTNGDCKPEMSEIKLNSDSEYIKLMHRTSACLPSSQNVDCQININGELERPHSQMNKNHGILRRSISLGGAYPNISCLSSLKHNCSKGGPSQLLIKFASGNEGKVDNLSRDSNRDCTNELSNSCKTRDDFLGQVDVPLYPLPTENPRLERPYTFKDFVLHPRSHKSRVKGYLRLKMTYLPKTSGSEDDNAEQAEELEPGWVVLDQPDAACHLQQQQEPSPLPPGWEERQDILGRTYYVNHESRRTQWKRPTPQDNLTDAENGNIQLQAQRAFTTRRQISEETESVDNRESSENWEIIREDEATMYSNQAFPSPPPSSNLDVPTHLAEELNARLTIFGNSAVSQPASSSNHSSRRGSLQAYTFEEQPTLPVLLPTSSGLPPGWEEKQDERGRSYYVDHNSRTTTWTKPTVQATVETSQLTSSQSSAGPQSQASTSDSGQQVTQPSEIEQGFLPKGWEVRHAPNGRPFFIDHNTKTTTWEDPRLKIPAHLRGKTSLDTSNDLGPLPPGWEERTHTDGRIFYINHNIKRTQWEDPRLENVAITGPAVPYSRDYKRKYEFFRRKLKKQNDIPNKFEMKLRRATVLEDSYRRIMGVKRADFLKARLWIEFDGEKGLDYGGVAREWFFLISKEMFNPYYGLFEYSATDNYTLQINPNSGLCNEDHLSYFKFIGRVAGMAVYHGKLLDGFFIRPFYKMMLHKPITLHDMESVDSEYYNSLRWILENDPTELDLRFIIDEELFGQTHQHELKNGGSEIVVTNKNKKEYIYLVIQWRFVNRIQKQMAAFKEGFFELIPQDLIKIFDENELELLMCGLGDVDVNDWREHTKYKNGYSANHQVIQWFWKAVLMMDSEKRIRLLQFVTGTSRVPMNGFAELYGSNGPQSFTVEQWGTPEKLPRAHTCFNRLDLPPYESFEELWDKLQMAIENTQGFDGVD

Variant	effect of a mutation on the interaction
K49E;R56E;V178D	decreasing interaction strength

Variants of: B1
Conditions: with dtl_human DTL

Variant	effect of a mutation on the interaction
K49E;R56E;V178D	decreasing interaction strength

Variants of: B1
Conditions: with cbl_human CBL

Variant	effect of a mutation on the interaction
K49E;R56E;V178D	decreasing interaction strength

Variants of: B1
Conditions: with kcna7_human KCNA7, Q96RP8

Variant	effect of a mutation on the interaction
K49E;R56E;V178D	decreasing interaction strength

Variants of: B1
Conditions: with shkb1_human SHKBP1, Q8TBC3

Variant	effect of a mutation on the interaction
K49E;R56E;V178D	decreasing interaction strength

Variants of: B1
Conditions: with abtb2_human ABTB2, Q8N961
abtb2_human ABTB2, Q8N961, sequence (Q8N961 whole entry): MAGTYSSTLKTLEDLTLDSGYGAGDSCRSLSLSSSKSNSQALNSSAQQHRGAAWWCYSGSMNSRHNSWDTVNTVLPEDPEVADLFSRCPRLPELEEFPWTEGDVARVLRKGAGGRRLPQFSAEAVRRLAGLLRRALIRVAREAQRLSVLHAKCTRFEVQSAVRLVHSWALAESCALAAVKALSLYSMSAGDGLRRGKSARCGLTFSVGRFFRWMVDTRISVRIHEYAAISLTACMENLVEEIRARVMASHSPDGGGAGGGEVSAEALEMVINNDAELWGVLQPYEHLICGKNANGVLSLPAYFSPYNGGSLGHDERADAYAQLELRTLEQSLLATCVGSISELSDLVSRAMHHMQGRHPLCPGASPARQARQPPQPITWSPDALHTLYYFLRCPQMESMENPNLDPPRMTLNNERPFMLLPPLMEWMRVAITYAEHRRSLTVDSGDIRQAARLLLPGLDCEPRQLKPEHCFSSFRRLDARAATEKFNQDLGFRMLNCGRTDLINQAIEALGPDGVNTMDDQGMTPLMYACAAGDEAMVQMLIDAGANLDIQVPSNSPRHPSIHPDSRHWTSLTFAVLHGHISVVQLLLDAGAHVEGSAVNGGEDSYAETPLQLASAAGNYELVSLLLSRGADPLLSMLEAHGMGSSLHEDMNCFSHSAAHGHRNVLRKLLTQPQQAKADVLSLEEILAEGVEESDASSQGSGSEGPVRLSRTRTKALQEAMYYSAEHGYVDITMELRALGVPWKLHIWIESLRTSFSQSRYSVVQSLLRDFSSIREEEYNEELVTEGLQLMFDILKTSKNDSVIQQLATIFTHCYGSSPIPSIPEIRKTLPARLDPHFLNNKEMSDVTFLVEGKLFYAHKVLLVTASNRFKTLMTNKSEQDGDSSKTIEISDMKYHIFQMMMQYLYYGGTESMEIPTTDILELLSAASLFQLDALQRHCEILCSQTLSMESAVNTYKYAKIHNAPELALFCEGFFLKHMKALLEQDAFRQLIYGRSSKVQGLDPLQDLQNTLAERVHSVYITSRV

Variant	effect of a mutation on the interaction
K49E;R56E;V178D	decreasing interaction strength

Variants of: B1
Conditions: with ned4l_human NEDD4L

Variant	effect of a mutation on the interaction
K49E;R56E;V178D	decreasing interaction strength

Variants of: B1
Conditions: with sh3r1_human SH3RF1, Q7Z6J0

Variant	effect of a mutation on the interaction
K49E;R56E;V178D	decreasing interaction strength

Variants of: B1
Conditions: with braf_human BRAF

Variant	effect of a mutation on the interaction
K49E;R56E;V178D	decreasing interaction strength

Variants of: B1
Conditions: with FAM110B

Variant	effect of a mutation on the interaction
K49E;R56E;V178D	decreasing interaction strength

Variants of: B1
Conditions: with iscu_human ISCU

Variant	effect of a mutation on the interaction
K49E;R56E;V178D	decreasing interaction strength

Variants of: B1
Conditions: with foxo4_human FOXO4, P98177

Variant	effect of a mutation on the interaction
K49E;R56E;V178D	decreasing interaction strength

Variants of: B1
Conditions: with klc4_human KLC4, Q9NSK0

Variant	effect of a mutation on the interaction
K49E;R56E;V178D	decreasing interaction strength

Variants of: B1
Conditions: with larp1_human LARP1, Q6PKG0

Variant	effect of a mutation on the interaction
K49E;R56E;V178D	decreasing interaction strength

Variants of: B1
Conditions: with klc3_human KLC3, Q6P597

Variant	effect of a mutation on the interaction
K49E;R56E;V178D	decreasing interaction strength

Variants of: B1
Conditions: with dnjb1_human DNAJB1, P25685

Variant	effect of a mutation on the interaction
K49E;R56E;V178D	decreasing interaction strength

Variants of: B1
Conditions: with wee1_human WEE1, P30291

Variant	effect of a mutation on the interaction
K49E;R56E;V178D	decreasing interaction strength

Variants of: B1
Conditions: with grip1_human GRIP1, Q9Y3R0

Variant	effect of a mutation on the interaction
K49E;R56E;V178D	decreasing interaction strength

Variants of: B1
Conditions: with KIAA0930, Q6ICG6
KIAA0930, Q6ICG6, sequence (Q6ICG6 whole entry): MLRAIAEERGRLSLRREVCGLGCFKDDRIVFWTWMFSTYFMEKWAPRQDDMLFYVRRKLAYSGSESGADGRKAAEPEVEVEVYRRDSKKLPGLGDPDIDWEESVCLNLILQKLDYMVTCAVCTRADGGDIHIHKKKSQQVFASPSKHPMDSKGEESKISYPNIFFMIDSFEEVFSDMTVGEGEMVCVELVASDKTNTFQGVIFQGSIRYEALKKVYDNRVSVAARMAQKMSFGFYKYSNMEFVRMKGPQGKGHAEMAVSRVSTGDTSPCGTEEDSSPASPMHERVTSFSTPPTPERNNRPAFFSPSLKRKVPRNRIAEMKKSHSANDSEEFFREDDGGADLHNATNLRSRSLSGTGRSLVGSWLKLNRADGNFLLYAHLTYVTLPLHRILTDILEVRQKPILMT

Variant	effect of a mutation on the interaction
K49E;R56E;V178D	decreasing interaction strength

Variants of: B1
Conditions: with ablm1_human ABLIM1, O14639

Variant	effect of a mutation on the interaction
K49E;R56E;V178D	decreasing interaction strength

Variants of: B1
Conditions: with baip2_human BAIAP2, Q9UQB8

Variant	effect of a mutation on the interaction
K49E;R56E;V178D	decreasing interaction strength

Variants of: B1
Conditions: with nav1_human NAV1, Q8NEY1

Variant	effect of a mutation on the interaction
K49E;R56E;V178D	decreasing interaction strength

Variants of: B1
Conditions: with pcm1_human PCM1, Q15154

Variant	effect of a mutation on the interaction
K49E;R56E;V178D	decreasing interaction strength

Variants of: B1
Conditions: with EPB41L2, O43491

Variant	effect of a mutation on the interaction
K49E;R56E;V178D	decreasing interaction strength

Variants of: B1
Conditions: with kif1b_human KIF1B

Variant	effect of a mutation on the interaction
K49E;R56E;V178D	decreasing interaction strength

Variants of: B1
Conditions: with clap1_human CLASP1, Q7Z460

Variant	effect of a mutation on the interaction
K49E;R56E;V178D	decreasing interaction strength

Variants of: B1
Conditions: with pum1_human PUM1, Q14671

Variant	effect of a mutation on the interaction
K49E;R56E;V178D	decreasing interaction strength

Variants of: B1
Conditions: with klc2_human KLC2, Q9H0B6
klc2_human KLC2, Q9H0B6, sequence (Q9H0B6 whole entry): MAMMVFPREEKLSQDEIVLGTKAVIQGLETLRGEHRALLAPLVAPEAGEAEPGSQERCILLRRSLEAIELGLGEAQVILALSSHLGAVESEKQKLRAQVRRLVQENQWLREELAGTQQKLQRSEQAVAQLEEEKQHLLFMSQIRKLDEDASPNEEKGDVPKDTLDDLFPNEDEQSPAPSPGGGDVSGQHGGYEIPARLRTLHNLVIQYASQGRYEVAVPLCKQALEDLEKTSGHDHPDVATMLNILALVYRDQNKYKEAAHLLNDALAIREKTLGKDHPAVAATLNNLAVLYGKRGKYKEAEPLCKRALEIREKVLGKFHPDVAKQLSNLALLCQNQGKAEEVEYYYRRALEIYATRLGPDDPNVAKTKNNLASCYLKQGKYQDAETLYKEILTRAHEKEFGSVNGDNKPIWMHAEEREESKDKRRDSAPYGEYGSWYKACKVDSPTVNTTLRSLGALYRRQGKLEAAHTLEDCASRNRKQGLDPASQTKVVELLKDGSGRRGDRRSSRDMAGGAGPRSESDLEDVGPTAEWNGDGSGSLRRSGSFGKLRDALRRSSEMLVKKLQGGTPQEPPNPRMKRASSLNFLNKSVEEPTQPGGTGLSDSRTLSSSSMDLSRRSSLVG

Variant	effect of a mutation on the interaction
K49E;R56E;V178D	decreasing interaction strength

Variants of: B1
Conditions: with foxo1_human FOXO1, Q12778

Variant	effect of a mutation on the interaction
K49E;R56E;V178D	decreasing interaction strength

Variants of: B1
Conditions: with irs1_human IRS1, P35568

Variant	effect of a mutation on the interaction
K49E;R56E;V178D	decreasing interaction strength

Variants of: B1
Conditions: with atat_human ATAT1, Q5SQI0

Variant	effect of a mutation on the interaction
K49E;R56E;V178D	decreasing interaction strength

Variants of: B1
Conditions: with 1433e_human YWHAE

Variant	effect of a mutation on the interaction
K49E;R56E;V178D	decreasing interaction strength
